The term Kd denotes the constant that tells how readily two partners part at equilibrium.

From publication PMC10600506, “A potent and broad‐spectrum neutralizing nanobody for SARS‐CoV‐2 viruses, including all major Omicron strains” (MedComm, 2023) come the findings set out here.

This assay deals with T1, SARS-CoV-2 Omicron BA.1 Spike receptor-binding domain (SARS-CoV-2 Omicron BA.1, strain, biotin on the Avi tag (for phage screening and BLI); not biotinylated for crystallisation).
T1 construct: Spike glycoprotein of SARS-CoV-2, Omicron BA.1, RBD1 (319-514) domain; also called RBD1; BA.1 RBD; not shown: Avi-tag, C-terminal, kept
The assay can be described thus: BLI; biotinylated monovalent, […]; 25°C; 20 mM HEPES pH 7.4, 150 mM NaCl, 10 mg/mL BSA. The settings on record: both partners purified. On the technique in general: BLI is a label-free optical method that tracks binding on a fibre tip over time.

B1: Nb4 (VHH)
VHH: AVQLQASGGGFVQPGGSLRLSCAASGWAETFGHMGWFRQAPGKEREFVSAIDWWDTVHYYADSVKGRFTISRDNSKNTVYLQMNSLRAEDTATYYCAYWDMDYLQNSIPVDYWGQGTQVTVSS
notes: also called Nb4 monomer; monomeric Nb4
As for B1, the Kd is approximately 8 nM.
